From paper PMC6168700 (2018)
One block for each binder: values may come before it.

Experiments:
[1] = target: T1, Full-length Has1, His-tagged (Saccharomyces cerevisiae (strain ATCC …, UniProt Q03532)); assay: Ni-NTA pull-down and co-expression, SDS-PAGE
[2] = target: T1, Full-length Has1, His-tagged; assay: Ni-NTA pull-down, Coomassie SDS-PAGE
[3] = target: T2, Full-length Rok1, His-tagged (Saccharomyces cerevisiae (strain ATCC …, UniProt P45818)); assay: Ni-NTA pull-down, Coomassie SDS-PAGE; 2 mM ATP present
T2 chain: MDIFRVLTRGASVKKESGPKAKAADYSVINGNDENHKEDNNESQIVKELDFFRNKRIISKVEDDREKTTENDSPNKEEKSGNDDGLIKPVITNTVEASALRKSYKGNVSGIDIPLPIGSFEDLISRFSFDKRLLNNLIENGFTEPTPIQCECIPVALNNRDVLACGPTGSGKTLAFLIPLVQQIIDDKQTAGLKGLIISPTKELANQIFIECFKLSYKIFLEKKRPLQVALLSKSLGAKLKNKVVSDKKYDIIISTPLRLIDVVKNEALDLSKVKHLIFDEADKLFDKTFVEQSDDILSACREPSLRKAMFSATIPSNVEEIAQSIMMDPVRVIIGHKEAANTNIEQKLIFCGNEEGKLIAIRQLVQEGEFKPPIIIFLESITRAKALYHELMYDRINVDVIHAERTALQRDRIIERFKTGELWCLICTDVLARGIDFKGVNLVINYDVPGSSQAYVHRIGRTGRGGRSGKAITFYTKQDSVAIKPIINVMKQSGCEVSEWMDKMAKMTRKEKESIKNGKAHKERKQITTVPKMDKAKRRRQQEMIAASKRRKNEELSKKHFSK

T1 sequence (Q03532 whole entry): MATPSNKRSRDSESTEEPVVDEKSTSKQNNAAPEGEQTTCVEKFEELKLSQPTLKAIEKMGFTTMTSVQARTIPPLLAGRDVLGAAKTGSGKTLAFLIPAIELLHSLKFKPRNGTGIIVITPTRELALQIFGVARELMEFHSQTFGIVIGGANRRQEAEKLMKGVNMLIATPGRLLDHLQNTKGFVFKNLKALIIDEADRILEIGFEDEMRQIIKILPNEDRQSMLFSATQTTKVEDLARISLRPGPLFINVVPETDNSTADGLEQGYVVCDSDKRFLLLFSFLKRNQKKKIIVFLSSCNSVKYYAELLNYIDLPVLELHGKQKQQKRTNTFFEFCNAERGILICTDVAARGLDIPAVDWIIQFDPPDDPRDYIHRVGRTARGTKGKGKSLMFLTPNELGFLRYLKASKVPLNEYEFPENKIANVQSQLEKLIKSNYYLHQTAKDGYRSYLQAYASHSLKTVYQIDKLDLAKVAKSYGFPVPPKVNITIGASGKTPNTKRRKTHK

binding result [1]: no binding
B1: Rrp5 (1400–1729), the TPR region alone (protein)
chain: GLSLSAGFDWTASILDQAQEEEESDQDQEDFTENKKHKHKRRKENVVQDKTIDINTRAPESVADFERLLIGNPNSSVVWMNYMAFQLQLSEIEKARELAERALKTINFREEAEKLNIWIAMLNLENTFGTEETLEEVFSRACQYMDSYTIHTKLLGIYEISEKFDKAAELFKATAKKFGGEKVSIWVSWGDFLISHNEEQEARTILGNALKALPKRNHIEVVRKFAQLEFAKGDPERGRSLFEGLVADAPKRIDLWNVYVDQEVKAKDKKKVEDLFERIITKKITRKQAKFFFNKWLQFEESEGDEKTIEYVKAKATEYVASHESQKADE

binding result [2]: no binding
binding result [3]: no binding
B2: Rrp5 (1083–1343), the last 3 S1 domains only (protein)
chain: STIKVGDELPGRVLKIAEKYVLLDLGNKVTGISFITDALNDFSLTLKEAFEDKINNVIPTTVLSVDEQNKKIELSLRPATAKTRSIKSHEDLKQGEIVDGIVKNVNDKGIFVYLSRKVEAFVPVSKLSDSYLKEWKKFYKPMQYVLGKVVTCDEDSRISLTLRESEINGDLKVLKTYSDIKAGDVFEGTIKSVTDFGVFVKLDNTVNVTGLAHITEIADKKPEDLSALFGVGDRVKAIVLKTNPEKKQISLSLKASHFSKE
